From paper PMC3843637

Target: MAN1 fragment from amino acids 658 to 911 (MAN1C) (human) (UniProt Q9Y2U8)
Experiment: SEC + NMR titration

MAN1 fragment from amino acids 658 to 911 (MAN1C) (human), sequence (Q9Y2U8 658-911): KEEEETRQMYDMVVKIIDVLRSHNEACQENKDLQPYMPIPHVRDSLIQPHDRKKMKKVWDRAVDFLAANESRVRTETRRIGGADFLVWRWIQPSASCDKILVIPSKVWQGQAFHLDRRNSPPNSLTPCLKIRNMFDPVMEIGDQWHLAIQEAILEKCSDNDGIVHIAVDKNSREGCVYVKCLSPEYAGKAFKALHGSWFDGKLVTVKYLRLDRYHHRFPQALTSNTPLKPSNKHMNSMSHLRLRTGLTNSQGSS

- Kd: 10 to 500 µM
Substance: PPM1A (from UniProt P35813 1-382) (enzyme)
